Reference: IntAct's records for PubMed 28436967

B1: Katanin p60 ATPase-containing subunit A1 (Mus musculus), Q9WV86 (parent)
chain: MSLQMIVENVKLAREYALLGNYDSAMVYYQGVLDQMNKYLYSVKDTHLRQKWQQVWQEINVEAKQVKDIMKTLESFKLDITSLQAAQHELPAAEGEVWSLPVPVERRPLPGPRKRQSSQHSDPKPHSNRPSTVVRAHRPSPQNLHNDRGKAVRSREKKEQSKGREEKNKLPAAVTEPEANKFDGTGYDKDLVEALERDIISQNPNVRWYDIADLVEAKKLLQEAVVLPMWMPEFFKGIRRPWKGVLMVGPPGTGKTLLAKAVATECKTTFFNVSSSTLTSKYRGESEKLVRLLFEMARFYSPATIFIDEIDSICSRRGTSEEHEASRRMKAELLVQMDGVGGASENDDPSKMVMVLAATNFPWDIDEALRRRLEKRIYIPLPSAKGREELLRISLRELELADDVNLASIAENMEGYSGADITNVCRDASLMAMRRRIEGLTPEEIRNLSREAMHMPTTMEDFEMALKKISKSVSAADIERYEKWIVEFGSC

Variants of: B1
Details: with ktnb1_mouse Katnb1, Q8BG40
Sequence of ktnb1_mouse Katnb1, Q8BG40 (Q8BG40 whole entry): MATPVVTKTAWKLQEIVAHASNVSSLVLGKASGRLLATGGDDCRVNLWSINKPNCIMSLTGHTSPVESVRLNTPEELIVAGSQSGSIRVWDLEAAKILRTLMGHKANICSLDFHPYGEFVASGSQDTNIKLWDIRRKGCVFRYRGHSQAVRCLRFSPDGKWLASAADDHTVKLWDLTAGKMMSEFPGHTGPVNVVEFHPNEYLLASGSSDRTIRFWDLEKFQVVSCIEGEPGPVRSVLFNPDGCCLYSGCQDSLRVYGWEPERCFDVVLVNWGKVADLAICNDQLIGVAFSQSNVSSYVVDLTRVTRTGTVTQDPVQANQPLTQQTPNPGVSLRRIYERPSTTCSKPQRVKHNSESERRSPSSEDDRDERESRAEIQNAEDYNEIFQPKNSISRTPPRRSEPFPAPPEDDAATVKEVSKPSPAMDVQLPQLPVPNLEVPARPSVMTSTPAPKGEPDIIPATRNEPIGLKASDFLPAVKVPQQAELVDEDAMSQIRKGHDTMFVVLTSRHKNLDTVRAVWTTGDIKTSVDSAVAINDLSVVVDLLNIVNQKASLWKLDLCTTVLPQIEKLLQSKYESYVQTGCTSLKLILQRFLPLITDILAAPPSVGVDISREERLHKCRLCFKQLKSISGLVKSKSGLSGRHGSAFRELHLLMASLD

Row | Variant | effect of a mutation on the interaction
1 | L18A | with no effect
2 | L19A | with no effect
